Data as given in US20230416363A1 (KADMON, published 2023).

Legend:
hPD-1-Fc [1] = target: T1, hPD-1-Fc (human, UniProt Q15116 25-167); experiment: SPR, Exp. 1
T1 construct: domain: IgV domain; also called human PD-1-Fc; not shown: human IgG1 Fc

hPD-1-his [2] = target: T2, hPD-1-his (human, UniProt Q15116 25-167); experiment: SPR, Exp. 1
T2 construct: domain: IgV domain; monomer in solution; biotin-labelled where captured by streptavidin; also called biotin-hPD-1-his

hPD-1-Fc [3] = target: T1, hPD-1-Fc; experiment: SPR, Exp. 2
hPD-1-his [4] = target: T2, hPD-1-his; experiment: SPR, Exp. 2
hPD-1-Fc [5] = target: T1, hPD-1-Fc; experiment: SPR, Exp. 3
hPD-1-his [6] = target: T2, hPD-1-his; experiment: SPR, Exp. 3
hPD-1-his [7] = target: T2, hPD-1-his; experiment: SPR, Exp. 4
[8] = target: T3, hPD1 (soluble, ELISA of Example 20) (human, UniProt Q15116 25-167, limits assumed); experiment: ELISA, hPD1
[9] = target: T4, mPD1 (soluble, ELISA of Examples 20 and 24) (mouse, UniProt Q02242 25-167, limits assumed); experiment: ELISA, mPD1
T4 construct: also called Biotin-mPD1
T4 sequence (looked up): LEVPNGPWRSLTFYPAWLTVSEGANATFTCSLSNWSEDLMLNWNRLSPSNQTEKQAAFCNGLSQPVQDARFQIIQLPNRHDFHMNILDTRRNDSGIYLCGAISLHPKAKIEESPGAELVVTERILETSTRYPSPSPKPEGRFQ

mPD-1-Fc = target: T5, mPD-1-Fc (mouse; human, UniProt Q02242 25-167, limits assumed); experiment: SPR Biacore
T5 construct: domain: IgV domain; not shown: human IgG1 Fc
T5 sequence (looked up): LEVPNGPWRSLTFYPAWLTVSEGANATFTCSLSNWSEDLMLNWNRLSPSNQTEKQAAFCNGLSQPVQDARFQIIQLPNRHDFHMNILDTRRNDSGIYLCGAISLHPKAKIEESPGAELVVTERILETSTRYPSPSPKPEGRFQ

mPD-1-his = target: T6, mPD-1-his (mouse, UniProt Q02242 25-167, limits assumed); experiment: SPR Biacore
T6 construct: domain: IgV domain
T6 sequence: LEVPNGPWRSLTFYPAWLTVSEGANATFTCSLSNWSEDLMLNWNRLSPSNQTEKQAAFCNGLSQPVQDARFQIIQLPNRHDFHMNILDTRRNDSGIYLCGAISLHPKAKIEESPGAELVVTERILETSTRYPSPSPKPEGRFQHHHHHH

[10] = target: T7, human PD-1 expressed on cells (human, UniProt Q15116 25-288); experiment: cell-based or functional assay
hPD-1-Fc [11] = target: T1, hPD-1-Fc; experiment: SPR Biacore, hPD1-Fc
hPD-1-Fc [12] = target: T1, hPD-1-Fc; experiment: ELISA, PD-1-Fc coated
hPD-1-Fc [13] = target: T1, hPD-1-Fc; experiment: ELISA, hPD-1-Fc coated
[14] = target: T7, human PD-1 expressed on cells; experiment: cell-based or functional assay; remark: listed apart in the source
[15] = target: T7, human PD-1 expressed on cells; experiment: cell-based or functional assay; remark: listed apart in the source
hPD-1-his [16] = target: T2, hPD-1-his; experiment: ELISA, PD-1-his on anti-his
hPD-1-his [17] = target: T2, hPD-1-his; experiment: ELISA, PD-1-his on anti-his; remark: listed apart in the source
hPD-1-Fc [18] = target: T1, hPD-1-Fc; experiment: SPR, range over experiments
hPD-1-Fc [19] = target: T1, hPD-1-Fc; experiment: blocking ELISA, PD-1 to PD-L1
hPD-1-Fc [20] = target: T1, hPD-1-Fc; experiment: blocking ELISA, PD-1 to PD-L2
[21] = target: T3, hPD1 (soluble, ELISA of Example 20); experiment: blocking ELISA, hPD1 to hPDL1
[22] = target: T7, human PD-1 expressed on cells; experiment: flow cytometry, hPD1-293 cells
[23] = target: T7, human PD-1 expressed on cells; experiment: flow cytometry, hPD1-293 cells; remark: listed apart in the source
[24] = target: T7, human PD-1 expressed on cells; experiment: cell-based or functional assay; remark: listed apart in the source
hPD-1-his [25] = target: T2, hPD-1-his; experiment: ELISA, PD-1-his on streptavidin
hPD-1-Fc [26] = target: T1, hPD-1-Fc; experiment: blocking ELISA, hPD-1 to hPD-L1; design: unit not given here
[27] = target: T7, human PD-1 expressed on cells; experiment: flow cytometry, hPD-1-293 cells
[28] = target: T7, human PD-1 expressed on cells; experiment: flow cytometry, hPD1-Jurkat cells
[29] = target: T7, human PD-1 expressed on cells; experiment: flow cytometry, hPD1-Jurkat cells; remark: listed apart in the source
[30] = target: T7, human PD-1 expressed on cells; experiment: flow cytometry, hPD-1-Jurkat cells
hPD-1-Fc [31] = target: T1, hPD-1-Fc; experiment: SPR Biacore T200, PD-1-Fc immobilised
hPD-1-his [32] = target: T2, hPD-1-his; experiment: SPR Biacore T200, PD-1-his immobilised
hPD-1-his [33] = target: T2, hPD-1-his; experiment: ELISA, biotin-PD-1-his on streptavidin
[34] = target: T7, human PD-1 expressed on cells; experiment: flow cytometry, activated PBMC donor FA
[35] = target: T7, human PD-1 expressed on cells; experiment: flow cytometry, activated PBMC donor two
[36] = target: T7, human PD-1 expressed on cells; experiment: flow cytometry, SEB-activated PBMC donor
[37] = target: T7, human PD-1 expressed on cells; experiment: flow cytometry, SEB-activated PBMC donor two

T2 sequence (Q15116 other isoform, or with tags, fused parts or gaps limits assumed): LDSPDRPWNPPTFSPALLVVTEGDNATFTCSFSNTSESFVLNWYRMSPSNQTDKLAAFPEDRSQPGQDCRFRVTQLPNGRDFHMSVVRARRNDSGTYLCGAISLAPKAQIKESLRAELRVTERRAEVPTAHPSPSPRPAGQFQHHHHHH
T1 sequence (Q15116 25-167 limits assumed): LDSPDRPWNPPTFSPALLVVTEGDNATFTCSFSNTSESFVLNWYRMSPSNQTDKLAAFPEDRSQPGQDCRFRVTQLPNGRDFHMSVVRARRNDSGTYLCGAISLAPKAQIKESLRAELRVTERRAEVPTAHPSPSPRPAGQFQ
T7 sequence (Q15116 25-288): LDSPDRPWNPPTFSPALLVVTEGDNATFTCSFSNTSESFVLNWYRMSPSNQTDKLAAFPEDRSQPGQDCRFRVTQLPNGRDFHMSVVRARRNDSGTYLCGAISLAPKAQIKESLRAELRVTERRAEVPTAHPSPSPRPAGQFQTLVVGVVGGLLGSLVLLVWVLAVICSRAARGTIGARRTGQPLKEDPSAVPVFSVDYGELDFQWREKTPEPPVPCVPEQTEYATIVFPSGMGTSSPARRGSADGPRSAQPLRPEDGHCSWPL
T3 sequence (Q15116 25-167 limits assumed): as the sequence (Q15116 25-167 limits assumed) above

B1: 38B2 (antibody, V domains shown)
VH: EVQLLESGGGLVQPGGSLRLSCAASGFTFSSYWMSWVRQAPGKGLEWVSAISGSGGSTYYADSVKGRFTISRDNSKNTLYLQMNSLRAEDTAVYYCASSPLQWVDVWGQGTTVTVSS
VL: DIQMTQSPSSLSASVGDRVTITCRASESISSWLAWYQQKPGKAPKLLIYDASSLESGVPSRFSGSGSGTDFTLTISSLQPEDFATYYCQQGDSFPFTFGQGTKLEIK
notes: 24H9 derivative, IgG; also called 780_54; hPD1 Ab (38B2)
- Kd (hPD-1-Fc [1]): < 0.033 nM
- Kd (hPD-1-his [2]): 0.946 nM
- Kd (hPD-1-Fc [3]): < 0.01 nM
- Kd (hPD-1-his [4]): 0.423 nM
- Kd (hPD-1-Fc [5]): < 0.01 nM
- Kd (hPD-1-his [6]): 0.932 nM
- Kd (hPD-1-his [7]): 0.205 nM
- EC50 [8]: 0.125 nM
- binding result [9]: no binding
- binding result (mPD-1-Fc): no binding
- binding result (mPD-1-his): no binding
- EC50 averaged from two experiments, Promega blockade bioassay [10]: 0.154 mg/L
- IC50, Promega blockade bioassay [10]: 0.725 nM
- Kd (hPD-1-Fc [11]): 0.147 nM
- koff (hPD-1-Fc [11]): 3.26e-05 s⁻¹
- kon (hPD-1-Fc [11]): 221000 M⁻¹ s⁻¹
- EC50 (hPD-1-Fc [12]): 0.096 nM
- OD at 10 nM (hPD-1-Fc [13]): 1.05 OD
- EC50, Promega blockade bioassay [14]: 0.154 mg/L
- Fold induction [14]: 6.54 fold
- EC50, Promega blockade bioassay, Exp. 1 [15]: 0.189 mg/L
- EC50, Promega blockade bioassay, Exp. 2 [15]: 0.135 mg/L
- Fold induction at 12 µg/ml, Exp. 1 [15]: 7.61 fold
- Fold induction at 12 µg/ml, Exp. 2 [15]: 8.31 fold
- OD at 10 nM (hPD-1-his [16]): 0.662 OD
- EC50 (hPD-1-his [17]): 0.06 nM
- Kd (hPD-1-Fc [18]): 0.01 to 0.03 nM
- IC50 (hPD-1-Fc [19]): 2.37 nM
- Inhibition % at 50 nM (hPD-1-Fc [19]): 93.9%
- Inhibition, % at 5.56 nM (hPD-1-Fc [19]): 92.7%
- IC50 (hPD-1-Fc [20]): 1.93 nM
- Inhibition, % at 3.7 nM (hPD-1-Fc [20]): 93.9%
- Inhibition, % at 100 nM (hPD-1-Fc [20]): 95.1%
- IC50 [21]: 4.25 nM
- EC50 [22]: 0.12 nM
- MFI at 5 nM [22]: 118 MFI
- EC50 [23]: 0.267 nM
- EC50 (read off the curve) [24]: ~0.5 nM
- OD at 10 nM (hPD-1-his [25]): 1.04 OD
- Inhibition at 50 nM (hPD-1-Fc [26]): 93.4
- MFI, 5 nM [27]: 297 MFI
- EC50 [28]: 0.16 nM
- MFI at 5 nM [28]: 91 MFI
- EC50 [29]: 0.137 nM
- MFI, 5 nM [30]: 60.8 MFI
- Kd (hPD-1-Fc [31]): 0.249 nM
- Kd (hPD-1-his [32]): 0.318 nM
- EC50 (hPD-1-his [33]): 0.081 nM
- EC50 [34]: 0.15 nM
- MFI at 25 nM [34]: 16.6 MFI
- EC50 [35]: 0.1 nM
- MFI at 25 nM [35]: 16.7 MFI
- MFI, 5 nM [36]: 64.2 MFI
- MFI, 5 nM [37]: 55.3 MFI
